Measurements reported in the supplement of paper PMC10567573.

Assay: protein stability index of a GFP-peptide fusion (GPS, HEK-293T) (PSI 1-6); higher = more stable
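Also: lentivirally expressed fusions sorted by FACS into six bins by GFP to DsRed ratio, PSI derived from sequencing read proportions per bin multiplied by bin number.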

FNYSVGFKDLNESLNALEDQDLDA
protein stability index (parent: IOH27581_8, c terminus: a fixed tail appended): 4.47

LPLPPPPPEPLSQVSMWDQRWQDH
protein stability index (parent: IOH27581_24, c terminus: a fixed tail appended): 3.74

ADPVLDLPLPPPPPEPLSQVSMWD
protein stability index (parent: IOH27581_23, c terminus: a fixed tail appended): 4.59

TNPDLIIVCAQSSQSLWNRLSVLL
protein stability index (parent: IOH27102_112, c terminus: a fixed tail appended): 2.77

QPPEMIGPMRPEQFSDEVEPATPE
protein stability index (parent: IOH27258_4, c terminus: a fixed tail appended): 5.04

SAIYKWITDNFCYFRHADPTWQNS [FOXJ1 WT]
protein stability index (parent: IOH27374_25, c terminus: a fixed tail appended): 2.69

FQRAMHDYNQAEMKQRDNCKIRIQ [STX11 WT]
protein stability index (parent: IOH27407_24, c terminus: a fixed tail appended): 2.68

MLWVQRKRRRKETSECPSDKDKSP
protein stability index (parent: IOH27431_1, c terminus: a fixed tail appended): 2.93

RALEEVEMKLQKNFLTQRENTIAG
protein stability index (parent: IOH27431_29, c terminus: a fixed tail appended): 3.73

KLLSVIVWMLMLLLAVPNIILTNQ
protein stability index (parent: IOH27142_24, c terminus: a fixed tail appended): 3.1

GHSHHSHHGHPSHQSHSLPNRRH
protein stability index (parent: IOH27431_35, c terminus: native): 2.57

KQTIGNSCKACGYRGMLDTHHKLC [EIF5 WT]
protein stability index (parent: IOH27132_20, c terminus: a fixed tail appended): 3.1

SQVSMWDQRWQDHQPLLPITDVP
protein stability index (parent: IOH27581_27, c terminus: native): 2.45

RPRRYVQPPEMIGPMRPEQFSDEV
protein stability index (parent: IOH27258_3, c terminus: a fixed tail appended): 3.67

FVSIAQSEQESLLQQAQAQFRMAQ
protein stability index (parent: IOH27102_133, c terminus: a fixed tail appended): 2.09

TSECPSDKDKSPESHKAKNESWIK
protein stability index (parent: IOH27431_3, c terminus: a fixed tail appended): 3.1

IYKKYALQSAAGKDAAKQIAWIKD
protein stability index (parent: IOH27247_70, c terminus: a fixed tail appended): 2.16

KKIFKSHLKSSRNSTSVKKKSSRN
protein stability index (parent: IOH27142_36, c terminus: a fixed tail appended): 3.96

QEKLQVLMAEGLLPAVKVFLDWLR
protein stability index (parent: IOH27102_108, c terminus: a fixed tail appended): 2.44

LNAELEEKMMQEAEKLKAQGEYSR [CCDC89 WT]
protein stability index (parent: IOH27358_17, c terminus: a fixed tail appended): 4.98

FWNIKQMWDTKTLGLRQHHCRKCG
protein stability index (parent: IOH27506_50, c terminus: a fixed tail appended): 2.1

PPEPLSQVSMWDQRWQDHQPLLPI
protein stability index (parent: IOH27581_25, c terminus: a fixed tail appended): 3.15

ITYPPGVKEISDKISKEEMVRRLK
protein stability index (parent: IOH27247_3, c terminus: a fixed tail appended): 3.62

LLIPKEDGVITASEDRTIRVWLKR
protein stability index (parent: IOH27506_6, c terminus: a fixed tail appended): 2.04

TRKLSPGKKRCKDIKRLLVNFMYL
protein stability index (parent: IOH27102_46, c terminus: a fixed tail appended): 2.32

TFGDHHKDRRFAYGRSDVVVLCFS [RHOBTB1 WT]
protein stability index (parent: IOH27118_15, c terminus: a fixed tail appended): 1.99

QRLEEQERRHREEKERRKKQQWEI [RSPH3 WT]
protein stability index (parent: IOH27062_61, c terminus: a fixed tail appended): 4.62
